Reference: publication PMC6856015

Target: Calmodulin (recombinant CaM) (UniProt P0DP23)
Test: cross-linking; photoaffinity labeling (PAL): 5 μM CaM and 5 μM Bpa-Mover(203-221), 10 mM HEPES pH 7.2, 150 mM KCl, 5 mM DTT, 2 h RT in the dark, with 100 μM Ca2+, UV irradiation; photoadducts read by SDS-PAGE and MALDI-TOF-MS

stoichiometry N (peptide per CaM): 1
Substance: Bpa-Mover(203-221), photoreactive variant of the rat Mover peptide 203-221 (from UniProt A8WCF8 203-221)
